The values that follow come from patent US8450280B2, “Activation of peptide prodrugs by hK2” (GenbSpera, Inc., priority 1999, dated 2013).

The target in this assay is T1, hK2 (Homo sapiens, UniProt P20151).
T1 construct: made in house
The assay is described as follows: Inhibition of hK2 by protease inhibitors (substrate H-Pro-Phe-Arg-AMC). Format: biochemical. As to conditions: for Activity (%) of hK2, percentage of inhibitor-free control: 10 minutes of incubation, 8.3 nM hK2, 90 μM substrate. How it is done: Activity of hK2 (1.6 pmol) was monitored using the substrate H-Pro-Phe-Arg-AMC (SEQ ID NO: 55) (90 μM). Inhibitors, at commonly used concentrations, and hK2 (8.3 nM) were mixed and proteolysis of 90 μM H-Pro-Phe-Arg-AMC (SEQ ID NO: 55) was followed up to 20 minutes, starting directly or 10 minutes after mixing the enzyme with various inhibitors. Inhibition was evaluated by comparison with […] controls.
The proteolytic activity is expressed in percentage of inhibitor-free control after 10 minutes of incubation.
Therefore, PPACK can be used to obtain fast irreversible inhibition of hK2.

T1 sequence (P20151 25-261): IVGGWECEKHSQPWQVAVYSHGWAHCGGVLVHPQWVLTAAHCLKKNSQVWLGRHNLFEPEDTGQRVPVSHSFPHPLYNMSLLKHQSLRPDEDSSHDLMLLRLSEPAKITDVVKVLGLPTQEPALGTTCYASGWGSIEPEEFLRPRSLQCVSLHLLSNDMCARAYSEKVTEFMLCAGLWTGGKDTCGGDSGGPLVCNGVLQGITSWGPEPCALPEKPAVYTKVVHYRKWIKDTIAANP

B1: ACT: α1-antichymotrypsin purified from human blood plasma (protein)
chain: HPNSPLDEENLTQENQDRGTHVDLGLASANVDFAFSLYKQLVLKAPDKNVIFSPLSISTALAFLSLGAHNTTLTEILKGLKFNLTETSEAEIHQSFQHLLRTLNQSSDELQLSMGNAMFVKEQLSLLDRFTEDAKRLYGSEAFATDFQDSAAAKKLINDYVKNGTRGKITDLIKDLDSQTMMVLVNYIFFKAKWEMPFDPQDTHQSRFYLSKKKWVMVPMMSLHHLTIPYFRDEELSCTVVELKYTGNASALFILPDQDKMEEVEAMLLPETLKRWRDSLEFREIGELYLPKFSISRDYNLNDILLQLGIEEAFTSKADLSGITGARNLAVSQVVHKAVLDVFEEGTEASAATAVKITLLSALVETRTIVRFNRPFLMIIVPTDTQNIFFMSKVTNPKQA
On to B1, for which the “inhibition of the hK2 activity (in words)” value (100-fold molar excess, 20 minute measurement time) was “no inhibition”. Where the note is “inhibitor 0.8 μM”, the “Activity (%) of hK2, percentage of inhibitor-free control” value is 100%.

B2: PCl: protein C inhibitor (PCI), plasma protease inhibitor (serpin) (protein)
chain: HRHHPREMKKRVEDLHVGATVAPSSRRDFTFDLYRALASAAPSQSIFFSPVSISMSLAMLSLGAGSSTKMQILEGLGLNLQKSSEKELHRGFQQLLQELNQPRDGFQLSLGNALFTDLVVDLQDTFVSAMKTLYLADTFPTNFRDSAGAMKQINDYVAKQTKGKIVDLLKNLDSNAVVIMVNYIFFKAKWETSFNHKGTQEQDFYVTSETVVRVPMMSREDQYHYLLDRNLSCRVVGVPYQGNATALFILPSEGKMQQVENGLSEKTLRKWLKMFKKRQLELYLPKFSIEGSYQLEKVLPSLGISNVFTSHADLSGISNHSNIQVSEMVHKAVVEVDESGTRAAAATGTIFTFRSARLNSQRLVFNRPFLMFIVDNNILFLGKVNRP
As to B2, the “Activity (%) of hK2, percentage of inhibitor-free control” value turned out to be 50% (inhibitor 0.016 μM) and 0% (inhibitor 0.08 μM).

B3: SLPI: protease inhibitor present in the prostate (protein)
chain: SGKSFKAGVCPPKKSAQCLRYKKPECQSDWQCPGKKRCCPDTCGIKCLDPVDTPNPTRRKPGKCPVTYGQCLMLNPPNFCEMDGQCKRDLKCCMGMCGKSCVSPVKA
In the case of B3, for the setting “8 nM hK2, 90 μM substrate”, the “inhibition of hK2 (in words)” value was “inhibited hK2 weakly”. Further, the “Activity (%) of hK2, percentage of inhibitor-free control” value is, setting by setting: (inhibitor 0.08 μM) 92%; (inhibitor 4 μM) 35%.
